Among the data in publication PMC12362244, “Fidelity, specialization, and evolution of Paramecium PolX DNA polymerases involved in programmed double-strand break DNA repair” (Nucleic Acids Research, 2025) are Km values, retold here.

Where a chain is given by its changes, count along the chain named. Numbers in names are those of the source.

Test in all cases: steady-state single-nucleotide gap-filling, FAM-primer urea-PAGE, Michaelis-Menten fit
Holding throughout (details): 1 µM gap-filling DNA (continuous template), 5 nM enzyme, 5 mM MgCl2, pH 7.5, 27°C

Substrate in series [1]: Nc1nc2c(ncn2[C@H]2C[C@H](O)[C@@H](COP(=O)(O)OP(=O)(O)OP(=O)(O)O)O2)c(=O)[nH]1
The format is biochemical, Homo sapiens. From the text: steady-state single-nucleotide gap-filling, FAM-primer urea-PAGE, Michaelis-Menten fit on Polλxt | all mutants underwent steady-state characterization in gap-filling context (Fig. 4B and C)

Substrate in series [2]: Nc1nc2c(ncn2[C@H]2C[C@H](O)[C@@H](COP(=O)(O)OP(=O)(O)OP(=O)(O)O)O2)c(=O)[nH]1
In kind it is biochemical, Homo sapiens. This is another data set of the same source.

Substrate in series [3]: Nc1nc2c(ncn2[C@H]2C[C@H](O)[C@@H](COP(=O)(O)OP(=O)(O)OP(=O)(O)O)O2)c(=O)[nH]1
The format is biochemical, Paramecium.

Substrate in series [4]: Nc1nc2c(ncn2[C@H]2C[C@H](O)[C@@H](COP(=O)(O)OP(=O)(O)OP(=O)(O)O)O2)c(=O)[nH]1
In kind it is biochemical, Homo sapiens. An excerpt:
steady-state single-nucleotide gap-filling, FAM-primer urea-PAGE, Michaelis-Menten fit on Polλxt | despite an almost normal KM in the […] range
The source holds these as a separate data set.

B1: Polλxt (Homo sapiens; C543A/DEL464-472/INS464KGET) (protein)
chain: AQPSSQKATNHNLHITEKLEVLAKAYSVQGDKWRALGYAKAINALKSFHKPVTSYQEACSIPGIGKRMAEKIIEILESGHLRKLDHISESVPVLELFSNIWGAGTKTAQMWYQQGFRSLEDIRSQASLTTQQAIGLKHYSDFLERMPREEATEIEQTVQKAAQAFNSGLLCVACGSYRRGKATCGDVDVLITHPDGRSHRGIFSRLLDSLRQEGFLTDDLVSKGETYLGVCRLPGPGRRHRRLDIIVVPYSEFACALLYFTGSAHFNRSMRALAKTKGMSLSEHALSTAVVRNTHGAKVGPGRVLPTPTEKDVFRLLGLPYREPAERDW
notes: Δ1-241; Loop1 residues 464-472 replaced by KGET of Polβ; cleavable N-terminal 14-His tag; E. coli
B1: in series [1], the Km was 1893 (949.4 - 4602.0) nM.

B2: Polλxt (Homo sapiens; C543A/DEL464-472/I492K/INS464KGET) (protein)
chain: B1 chain with I246K
notes: as for B1
As for B2, the Km in series [2] is reported as 494.7 (237.7 - 937.3) nM.

B3: Polλxt (Homo sapiens; C543A/DEL464-472/E529D/I492K/INS464KGET) (protein)
chain: B1 chain with I246K, E283D
notes: as for B1
With B3, the Km in series [3] is recorded as 399.3 (247.1 - 607.0) nM.

B4: Polλxt (Homo sapiens; C543A/DEL464-472/H530Y/I492R/INS464KGET/S528N) (protein)
chain: B1 chain with I246R, S282N, H284Y
notes: as for B1
Regarding B4, the Km in series [4] was 849.9 (587.8 - 1277.0) nM.
